According to publication doi:10.1101/2022.10.14.512215 (bioRxiv, 2022):
Values joined by “and” are separate entries in the source; they are usually repeats but may differ in a detail not shown here. Identical values can stand only once.

B1: XIAP BIR2^124-240 (domain or fragment)
chain: GPRDHFALDRPSETHADYLLRTGQVVDISDTIYPRNPAMYSEEARLKSFQNWPDYAHLTPRELASAGLYYTGIGDQVQCFCCGGKLKNWEPCDRAWSEHRRHFPNCFFVLGRNLNIRSE
B2: XIAP BIR2AG^124-240 (domain or fragment)
chain: GPRDHFALDRPSETHADYLLRTGQVVDISDTIYPRNPAMYSEEARLKSFQNWPDYAHLTPRELASAGLYYTGIGDQVQCFACGGKLKNWEPGDRAWSEHRRHFPNCFFVLGRNLNIRSE
B3: RIP2K^1-317 (kinase domain of human RIP2, residues 1-317) (domain or fragment)
chain: MNGEAICSALPTIPYHKLADLRYLSRGASGTVSSARHADWRVQVAVKHLHIHTPLLDSERKDVLREAEILHKARFSYILPILGICNEPEFLGIVTEYMPNGSLNELLHRKTEYPDVAWPLRFRILHEIALGVNYLHNMTPPLLHHDLKTQNILLDNEFHVKIADFGLSKWRMMSLSQSRSSKSAPEGGTIIYMPPENYEPGQKSRASIKHDIYSYAVITWEVLSRKQPFEDVTNPLQIMYSVSQGHRPVINEESLPYDIPHRARMISLIESGWAQNPDERPSFLKCLIELEPVLRTFEEITFLEAVIQLKKTKLQSV
B4: XIAP BIR2^154-240 (domain or fragment)
chain: YPRNPAMYSEEARLKSFQNWPDYAHLTPRELASAGLYYTGIGDQVQCFCCGGKLKNWEPCDRAWSEHRRHFPNCFFVLGRNLNIRSE
B5: XIAP BIR2AG^154-240 (domain or fragment)
chain: YPRNPAMYSEEARLKSFQNWPDYAHLTPRELASAGLYYTGIGDQVQCFACGGKLKNWEPGDRAWSEHRRHFPNCFFVLGRNLNIRSE
B6: XIAP BIR2^124-263 (domain or fragment)
chain: GPRDHFALDRPSETHADYLLRTGQVVDISDTIYPRNPAMYSEEARLKSFQNWPDYAHLTPRELASAGLYYTGIGDQVQCFCCGGKLKNWEPCDRAWSEHRRHFPNCFFVLGRNLNIRSESDAVSSDRNFPNSTNLPRNPSMA
B7: XIAP BIR2^93-240 (domain or fragment)
chain: GPINGFYLENSATQSTNSGIQNGQYKVENYLGSRDHFALDRPSETHADYLLRTGQVVDISDTIYPRNPAMYSEEARLKSFQNWPDYAHLTPRELASAGLYYTGIGDQVQCFCCGGKLKNWEPCDRAWSEHRRHFPNCFFVLGRNLNIRSE
B8: XIAP BIR2^93-263 (domain or fragment)
chain: GPINGFYLENSATQSTNSGIQNGQYKVENYLGSRDHFALDRPSETHADYLLRTGQVVDISDTIYPRNPAMYSEEARLKSFQNWPDYAHLTPRELASAGLYYTGIGDQVQCFCCGGKLKNWEPCDRAWSEHRRHFPNCFFVLGRNLNIRSESDAVSSDRNFPNSTNLPRNPSMA

How the values were obtained:
[1] = biological target: B3; assay: native MS
[2] = biological target: B3; assay: NMR translational diffusion
native MS = biological target: the molecule itself; assay: native MS
[3] = biological target: B3; assay: cryo-EM structure
[4] = biological target: RIP2K^1-300 (kinase domain of human RIP2, residues 1-300) (human, UniProt O43353 1-300); assay: MST

Binder | stoichiometry N [1] | binding result [4] | further results
B1 | 1 RIP2K per XIAP BIR2 (2:2) and 2 RIP2K per XIAP BIR2 (2:1) | – | –
B2 | 1 RIP2K per XIAP BIR2 (2:2) | – | stoichiometry N [2]: 2 RIP2 per BIR2 (1:2 BIR2:RIP2)
B3 | – | – | stoichiometry N (native MS): 2
B4 | 1 RIP2K per XIAP BIR2 (2:2) | – | stoichiometry N [3]: 2 RIP2K per XIAP BIR2 (2:1); Kd [4]: 85.6 ± 18.7 nM
B5 | 2 RIP2K per XIAP BIR2 (2:1) and 1 RIP2K per XIAP BIR2 (2:2) | – | –
B6 | – | binds | –
B7 | – | binds | –
B8 | – | binds | –
